The target in this test is ZZ-CBM3 (Staphylococcus aureus). In words: pull-down; ZZ-CBM3 pre-anchored on discs of cellulose hydrogel (8Cell, 14Cell, 18Cell; 5 mm, 30 mg); 100 uL of IgG (0.312-10.0 uM) in TST buffer incubated 18 h at 37 °C; free IgG in the supernatant by absorbance at 280 nm (NanoDrop), bound IgG by mass balance; triplicates.

On to “Human normal immunoglobulin (IgG) (antibody)”, for which the grafting yield relative to the initial amount contacted with the modified hydrogels lay in the range of 26 to 89% and the stoichiometry N (mol IgG per mol ZZ-CBM3) amounted to 1.

For the origin of these results see PMC8227779.
